In general, Kd refers to the concentration at which binding is half-saturated. One may read the EC50 (read off the curve) as the midpoint of the concentration-response curve. Higher therefore signals a less potent agent.

We go through 1 molecule from patent publication US20230028110A1 (ADAPTATE BIOTHERAPEUTICS, published 2023).

Experiment [1] addresses T1, TIGIT on activated CD8 T-cells (human, UniProt Q495A1).
T1 sequence (receptor chain, looked up): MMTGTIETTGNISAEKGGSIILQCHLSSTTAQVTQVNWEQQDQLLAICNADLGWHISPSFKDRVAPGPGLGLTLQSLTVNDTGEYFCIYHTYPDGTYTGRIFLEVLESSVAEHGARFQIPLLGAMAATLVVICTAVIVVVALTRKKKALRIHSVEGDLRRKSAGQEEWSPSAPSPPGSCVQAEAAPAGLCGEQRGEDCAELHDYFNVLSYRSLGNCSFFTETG
The experiment is described as follows: flow cytometry, anti-human IgG secondary antibody, activated CD8 T-cells. (In general: A flow cytometer gives signals particle by particle.)
Description: Initially CD4 and CD8 T-cells were negatively selected by magnetic sorting from PBMC buffy coats extracted from whole blood. […] After washing, cells were incubated for a further 15 minutes with anti-human IgG secondary antibodies before washing and fixing. The amount of antibody bound to each cell type was determined by flow cytometry.

Experiment [2] concerns the target T2, Recombinant human TIGIT (human, UniProt Q495A1 22-141).
T2 construct: also called T cell immunoreceptor with Ig and ITIM domains
T2 sequence (looked up): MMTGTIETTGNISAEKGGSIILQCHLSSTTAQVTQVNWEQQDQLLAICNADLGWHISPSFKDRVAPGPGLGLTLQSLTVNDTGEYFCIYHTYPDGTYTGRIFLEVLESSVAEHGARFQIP
Description: SPR, Reichert 4SPR; antibody captured on Protein A chip, human TIGIT flown over.
Description: Recombinant human Vδ1 heterodimer or human TIGIT was flown over the cell at a top concentration of 100 nM.

Experiment [3] addresses T3, TIGIT on activated CD4 T-cells.
T3 chain: T1 sequence (receptor chain, looked up)
The experiment is described as follows: flow cytometry, anti-human IgG secondary antibody, activated CD4 T-cells.

Experiment [4] deals with T4, Cyno DV1/GV77 antigen, recombinant cynomolgus Vδ1 heterodimer (cynomolgus monkey).
T4 construct: also called cyno TRDV1; Cyno DV1-77; not shown: delta CDR3/J, TCR constant region, zipper and tag; the whole gamma chain GV77
T4 sequence (delta, as listed by the source limits assumed): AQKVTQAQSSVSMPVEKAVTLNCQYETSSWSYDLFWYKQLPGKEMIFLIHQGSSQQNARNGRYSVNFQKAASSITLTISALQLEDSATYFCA
The experiment is described as follows: SPR (Reichert 4SPR), antibody on Protein A chip, Vδ1 heterodimer at 6.25-100 nM as analyte.

Experiment [5] concerns the target T5, L1 (DV1-GV4), soluble human Vδ1/Vγ4 γδ TCR heterodimer in leucine zipper format (human).
T5 construct: Biotinylated in the DELFIA ranking; also called Antigen L1 (TRDV1/TRGV4); human DV1-GV4; not shown: gamma chain: Vγ4 (TRGV4) domain on a TCR constant region, leucine zipper, histidine tag
The description is as above.

Experiment [6] concerns the target T5, L1 (DV1-GV4), soluble human Vδ1/Vγ4 γδ …. Description: SPR (Reichert 4SPR), antibody on Protein A chip, antigen flown over.
Description: Recombinant human Vδ1 heterodimer or human MSLN was flown over the cell at a top concentration of 100 nM with the following parameters: 180 s association, 480 s dissociation, flowrate 25 μL/min, running buffer PBS+0.05% Tween 20. All experiments were performed at room temperature.
Experiment [7] concerns the target T6, Recombinant human PD-1 (human, UniProt Q15116 25-167, limits assumed).
T6 construct: also called programmed cell death protein 1
The experiment is described as follows: SPR, Reichert 4SPR; antibody captured on Protein A chip, human PD-1 flown over. (In SPR one partner is held on a chip, and binding of the other changes the refractive index at the surface.)
Description: Recombinant human Vδ1 heterodimer or human PD-1 was flown over the cell at a top concentration of 100 nM.

Experiment [8] concerns the target Recombinant human FAPα (human, UniProt Q12884 26-760). The experiment is described as follows: SPR, Reichert 4SPR; antibody captured on Protein A chip, human FAPα flown over.
Description: Recombinant human Vδ1 heterodimer or human FAPα was flown over the cell at a concentration of 100 nM with the following parameters: 180 s association, 480 s dissociation, flowrate 25 μL/min, running buffer PBS+0.05% Tween 20. All experiments were performed at room temperature.
The target in experiment [9] is T7, Vδ1 chain of the γδ TCR on human Vδ1 γδ T cells (human).
T7 construct: whole, on cells; also called cell surface Vδ1 TCR; Vδ1-positive γδ T cells
T7 sequence (A0A1B0GX56 22-115, stated change not applied): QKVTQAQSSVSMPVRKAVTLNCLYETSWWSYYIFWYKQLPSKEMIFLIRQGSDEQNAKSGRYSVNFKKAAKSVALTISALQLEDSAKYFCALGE
Description: flow cytometry on Vδ1 γδ T-cells, anti-human IgG secondary antibody, % IgG bound cells.
Description: After washing, cells were incubated for a further 15 minutes with anti-human IgG secondary antibodies before washing and fixing. The amount of antibody bound to each cell type was determined by flow cytometry.

The target in experiment [10] is T7, Vδ1 chain of the γδ TCR on human Vδ1 γδ …. Description: flow cytometry on Vδ1 γδ T-cells, anti-human IgG secondary antibody, % cells bound IgG.

T5 sequence (main, as listed by the source): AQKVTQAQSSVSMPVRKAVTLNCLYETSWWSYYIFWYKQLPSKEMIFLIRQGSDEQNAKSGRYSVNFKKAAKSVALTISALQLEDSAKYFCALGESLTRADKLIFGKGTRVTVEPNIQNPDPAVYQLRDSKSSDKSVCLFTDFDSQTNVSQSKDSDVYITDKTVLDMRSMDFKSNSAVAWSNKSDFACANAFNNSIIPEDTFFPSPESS
T6 sequence (Q15116 25-167 limits assumed): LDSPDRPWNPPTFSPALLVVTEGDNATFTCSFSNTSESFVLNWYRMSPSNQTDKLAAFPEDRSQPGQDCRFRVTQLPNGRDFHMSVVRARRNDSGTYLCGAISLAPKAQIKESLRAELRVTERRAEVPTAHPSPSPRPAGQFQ
Sequence of Recombinant human FAPα (Q12884 26-760 limits assumed): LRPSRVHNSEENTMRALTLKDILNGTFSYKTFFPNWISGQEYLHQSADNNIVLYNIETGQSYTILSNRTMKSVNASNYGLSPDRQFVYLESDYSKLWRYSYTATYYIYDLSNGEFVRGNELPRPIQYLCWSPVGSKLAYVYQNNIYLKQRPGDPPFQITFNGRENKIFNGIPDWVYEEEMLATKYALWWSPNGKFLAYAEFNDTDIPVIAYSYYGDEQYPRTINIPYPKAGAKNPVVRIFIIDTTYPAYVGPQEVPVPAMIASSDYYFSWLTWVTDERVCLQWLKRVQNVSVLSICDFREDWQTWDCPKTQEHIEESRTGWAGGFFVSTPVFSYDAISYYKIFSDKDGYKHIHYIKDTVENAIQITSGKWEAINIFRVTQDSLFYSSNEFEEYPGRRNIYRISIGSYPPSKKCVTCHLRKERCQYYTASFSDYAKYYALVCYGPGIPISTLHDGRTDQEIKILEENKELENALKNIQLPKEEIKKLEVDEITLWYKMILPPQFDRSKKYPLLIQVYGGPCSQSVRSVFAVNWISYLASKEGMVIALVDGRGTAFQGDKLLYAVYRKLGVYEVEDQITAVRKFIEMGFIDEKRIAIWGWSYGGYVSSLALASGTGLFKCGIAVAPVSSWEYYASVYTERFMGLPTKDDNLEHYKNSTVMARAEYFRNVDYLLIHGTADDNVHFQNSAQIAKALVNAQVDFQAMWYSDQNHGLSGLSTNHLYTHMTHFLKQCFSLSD

B1: ADT1-4-2 (antibody, IgG1, V domains shown)
VH: EVQLQQSGPGLVKPSQTLSLTCAISGDSVSSKSAAWNWIRQSPSRGLEWLGRTYYRSKWSTDYAASVKSRITINPDTSKNQLSLQLNSVTPEDTAVYYCARTWVGYVDRWGQGTLVTVSS
VL: DIQMTQSPPALSASVGDRVTITCRASQDINDWLAWYQHKPGKAPKLLIYDASSLESGVPLRFSGSGSGTEFTLTISSLQPDDFATYYCQQKYSAPQVTFGQGTRLEIK
notes: IgG1
B1: the binding result was “no binding (tested: 200 nM)” in experiment [1]; “no binding” in experiment [2]; “no binding (tested: 200 nM)” in [3]; “no binding” in experiment [7]; “no binding” in experiment [8]. The Kd in experiment [4] amounted to 2.6 nM; in experiment [5], 0.34 nM; in experiment [6], 0.01 nM. For the same molecule, the 50% effective concentration (EC50 (read off the curve)) in experiment [9] was approximately 0.3 nM; in [10], approximately 0.2 nM.
